Assay results taken from US5451506A, “Oncostatin M and novel compositions having anti-neoplastic activity” (Oncogen Limited Partnership, priority 1993, dated 1995).

What was measured:
[1] = biological target: T1, Oncostatin M receptor on A375 or A549 cells (Homo sapiens, UniProt P40189+Q99650); assay: Specificity of Oncostatin M receptor: competition for binding of 125I-Oncostatin M; details: 125I-Oncostatin M 30-50 ng/ml
T1 construct: endogenous in cells; host or cells: A375 or A549 cells (intact monolayers)
T1 sequence (Q99650 28-979): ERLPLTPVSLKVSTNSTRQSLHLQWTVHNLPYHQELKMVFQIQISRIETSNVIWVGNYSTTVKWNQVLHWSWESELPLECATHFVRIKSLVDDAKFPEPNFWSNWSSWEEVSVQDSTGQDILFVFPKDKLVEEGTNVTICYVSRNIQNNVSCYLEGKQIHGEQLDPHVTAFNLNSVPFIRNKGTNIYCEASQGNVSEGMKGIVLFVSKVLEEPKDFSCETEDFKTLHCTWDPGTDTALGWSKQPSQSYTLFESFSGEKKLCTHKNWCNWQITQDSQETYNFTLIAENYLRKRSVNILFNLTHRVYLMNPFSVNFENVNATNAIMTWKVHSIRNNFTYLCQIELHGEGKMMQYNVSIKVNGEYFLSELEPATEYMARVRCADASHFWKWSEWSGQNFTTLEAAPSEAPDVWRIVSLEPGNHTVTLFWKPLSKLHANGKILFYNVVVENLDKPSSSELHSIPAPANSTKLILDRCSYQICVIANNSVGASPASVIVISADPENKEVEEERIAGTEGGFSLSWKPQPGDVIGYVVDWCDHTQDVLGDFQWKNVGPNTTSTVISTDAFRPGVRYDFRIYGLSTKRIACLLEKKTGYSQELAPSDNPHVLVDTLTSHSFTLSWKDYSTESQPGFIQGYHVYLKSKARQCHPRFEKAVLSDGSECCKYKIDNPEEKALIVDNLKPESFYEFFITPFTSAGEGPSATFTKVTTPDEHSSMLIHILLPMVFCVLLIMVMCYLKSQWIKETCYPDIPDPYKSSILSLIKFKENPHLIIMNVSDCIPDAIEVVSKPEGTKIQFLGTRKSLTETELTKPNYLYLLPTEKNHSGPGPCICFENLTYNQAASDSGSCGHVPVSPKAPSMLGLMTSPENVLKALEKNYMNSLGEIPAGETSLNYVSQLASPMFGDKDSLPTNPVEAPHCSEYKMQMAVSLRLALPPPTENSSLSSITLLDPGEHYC
T1 sequence (P40189 23-918): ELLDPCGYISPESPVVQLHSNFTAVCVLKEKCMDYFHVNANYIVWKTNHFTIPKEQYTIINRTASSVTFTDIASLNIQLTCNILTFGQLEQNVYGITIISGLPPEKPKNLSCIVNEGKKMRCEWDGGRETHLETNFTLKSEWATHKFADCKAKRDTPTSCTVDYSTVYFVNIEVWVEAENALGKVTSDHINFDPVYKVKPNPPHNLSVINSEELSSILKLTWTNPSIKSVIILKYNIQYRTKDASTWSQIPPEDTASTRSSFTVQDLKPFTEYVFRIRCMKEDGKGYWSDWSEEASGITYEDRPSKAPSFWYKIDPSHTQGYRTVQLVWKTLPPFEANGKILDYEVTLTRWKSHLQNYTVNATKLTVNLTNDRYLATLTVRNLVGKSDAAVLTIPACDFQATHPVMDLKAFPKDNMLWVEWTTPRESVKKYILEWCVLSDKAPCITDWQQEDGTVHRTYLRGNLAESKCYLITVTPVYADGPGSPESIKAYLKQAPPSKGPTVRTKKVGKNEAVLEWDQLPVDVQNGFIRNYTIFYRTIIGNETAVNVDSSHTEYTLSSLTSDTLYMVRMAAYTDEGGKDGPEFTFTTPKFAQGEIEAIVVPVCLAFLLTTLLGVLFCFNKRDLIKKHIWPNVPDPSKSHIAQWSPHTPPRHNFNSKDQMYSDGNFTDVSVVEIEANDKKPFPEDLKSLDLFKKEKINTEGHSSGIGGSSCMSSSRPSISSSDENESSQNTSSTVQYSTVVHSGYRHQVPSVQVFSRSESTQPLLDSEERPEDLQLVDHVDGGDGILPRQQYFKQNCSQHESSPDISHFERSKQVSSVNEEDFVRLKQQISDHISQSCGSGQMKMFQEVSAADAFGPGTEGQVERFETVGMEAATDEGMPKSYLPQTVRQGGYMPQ
Procedure: The cell line of interest was plated in 48-well plates at a density of 2×10^5 cells/well and maintained at 37° C. for 16-24 hours before initiation of the assay. Cell monolayers were then washed once with Binding buffer (Linsley et al., Biochemistry (1986) 25:2978-2986). To measure total binding, ^125 I-Oncostatin M was added at concentrations ranging from 0.5-100 ng/ml. To measure non-specific binding, unlabeled Oncostatin M was added simultaneously with the ^125 I-Oncostatin M to replicate plates at a concentration 20- to 100-fold higher than the concentration of ^125 I-Oncostatin M. Binding was allowed to proceed for 2-5 hours at 23°, then the monolayers were washed four times with Binding Buffer, cell-bound radioactivity was solubilized with 1N NaOH and was counted in a gamma counter. Specific binding was calculated by subtracting the non-specific binding from total binding. The dissociation constant (Kd) and binding capacity was determined by Scatchard analysis (Scatchard, Ann. N.Y. Acad. Sci. (1949) 51:660).
The specificity of the Oncostatin M receptor was determined by evaluating the ability of several other polypeptide growth factors to compete for binding of ^125 I-Oncostatin M (at 30-50 ng/ml) to A375 or A549 cells.

A375 cells [2] = assay: Growth inhibition assay (A375 proliferation; synergy tests); type: cell-based, human
Procedure: A375 melanoma cells (4×10^3 cells/50 μl), Mv1Lu mink lung epithelial cells (3.5×10^3 cells/50 μl), or other cell line of interest at an appropriate cell density were subcultured for four hours on flat-bottomed 96-well tissue culture plates (Costar 3596, Cambridge, Mass.) in growth medium comprising Dulbecco's modified Eagle's medium (DMEM), supplemented with 10% heat-in-activated fetal bovine serum, and P/S. Test samples to be assayed for growth inhibition were diluted in growth medium and assayed in triplicate with 50 μl of the diluted sample added to each well. The cells were incubated for 72 hours at 37° C.
The growth inhibitory activity of highly purified TGF-β1, recombinant gamma-interferon (rIFN-γ), and Oncostatin M on A375 cells was determined, and possible synergy between TGF-β1 and Oncostatin M, TGF-β1 and rIFN-γ, and Oncostatin M and rIFN-γ in inhibiting A375 proliferation was tested. […] is expressed in units of Mv1Lu growth inhibitory activity, rIFN-γ in units of anti-viral activity and Oncostatin M in units of A375 growth inhibitory activity. Concentrations of TGF-β1 (1-30 U/ml) and Oncostatin M (0.5-10 U/ml) were chosen which caused either no or only minimal growth inhibition when tested individually.

A375 cells [3] = assay: Growth inhibitory assay of recombinant Oncostatin M (crystal violet staining); type: cell-based, human; details: for Expression Level Units/ml (growth inhibitory activity): medium or extract of the expressing host cells (COS, CHO without methotrexate amplification, sf9); for Oncostatin M activity in medium of transfected COS cells: further test, one unit inhibits growth of A375 cells by 50%
Procedure: Biological activity of recombinant Oncostatin M was assessed by a growth inhibitory assay. Briefly, aliquots of extracts from transformed cells or medium from cell cultures were lyophilized with 20 μg bovine serum albumin as a carrier protein, resuspended in DMEM containing 10% fetal calf serum, and diluted serially before addition to 96-well cultures containing A375 cells (3.5×10^3 cells/well). […] Recombinant Oncostatin M was prepared using the following expression systems: E. coli, COS cells, CHO and insect cells (sf9).

Lys^3 bombesin
Inhibitory activity towards binding of 125I-Oncostatin M ([1]; competitor 50 μM): None of these showed significant inhibitory activity

TGF-β1: highly purified transforming growth factor-β1, units of Mv1Lu growth inhibitory activity
Inhibition of cell growth (A375 cells [2]; 3.4 U/ml, alone): 7%

Tyr^3 -bombesin
Inhibitory activity towards binding of 125I-Oncostatin M ([1]; competitor 1 μM): None of these showed significant inhibitory activity

epidermal growth factor: polypeptide growth factor tested as competitor
Inhibitory activity towards binding of 125I-Oncostatin M ([1]; competitor 2.5 μg/ml): None of these showed significant inhibitory activity

fibroblast growth factor
Inhibitory activity towards binding of 125I-Oncostatin M ([1]; competitor 2.5 μg/ml): None of these showed significant inhibitory activity

formyl-M-L-F
Inhibitory activity towards binding of 125I-Oncostatin M ([1]; competitor 50 μM): None of these showed significant inhibitory activity

interleukin 1-β: polypeptide growth factor tested as competitor
Inhibitory activity towards binding of 125I-Oncostatin M ([1]; competitor 50 μg/ml): None of these showed significant inhibitory activity

B1: ^125 I-Oncostatin M: Oncostatin M purified from TPA-treated U937 cells and radiolabeled with 125I by the iodogen method (protein, UniProt P13725 26-221, looked up)
Oncostatin-M: AAIGSCSKEYRVLLGQLQKQTDLMQDTSRLLDPYIRIQGLDVPKLREHCRERPGAFPSEETLRGLGRRGFLQTLNATLGCVLHRLADLEQRLPKAQDLERSGLNIEDLEKLQMARPNILGLRNNIYCMAQLLDNSDTAEPTKAGRGASQPPTPTPASDAFQRKLEGCRFLHGYHRFMHSVGRVFSKWGESPNRSRR
modifications: 125I label
notes: Oncostatin M purified from TPA-treated U937 cells and radiolabeled with 125I by the iodogen method
Original biological activity retained after iodination (A375 cells [2]; growth inhibition assays): approximately 85%

B2: pAc/OncM: Oncostatin M expressed under control of the baculovirus polyhedrin gene regulators (protein, UniProt P13725 26-221, looked up)
Oncostatin-M: B1 Oncostatin-M
modifications: baculovirus-expressed
notes: Oncostatin M expressed under control of the baculovirus polyhedrin gene regulators
Expression Level Units/ml (growth inhibitory activity) (A375 cells [3]): 1,800 GIA units/ml

B3: pSV2βOncM/dhfr: Human Oncostatin M gene fused to βTGF leader sequence, with mouse dhfr gene (protein, UniProt P13725 26-221, looked up)
Oncostatin-M: B1 Oncostatin-M
modifications: expressed with TGF-beta leader sequence
Expression Level Units/ml (growth inhibitory activity) (A375 cells [3]): 10,000 GIA units/ml

B4: pH3M/βOncM: Oncostatin M with βTGF leader sequence fused to the coding sequence, secreted into medium (protein, UniProt P13725 26-221, looked up)
Oncostatin-M: B1 Oncostatin-M
modifications: expressed with TGF-beta leader sequence
Sp. Act (A375 cells [3]; E. coli fusion proteins purified and refolded before testing): > 10,000 GIA units/ug protein | Oncostatin M activity in medium of transfected COS cells (A375 cells [3]): approximately 18,000 units/ml | Expression Level Units/ml (growth inhibitory activity) (A375 cells [3]): 56,000 GIA units/ml

B5: plasmid pH3M containing just the Oncostatin M sequences: pH3M containing Oncostatin M sequences without the fused βTGF leader sequence (protein, UniProt P13725 26-221, looked up)
Oncostatin-M: B1 Oncostatin-M
Oncostatin M activity in medium of transfected COS cells (A375 cells [3]): No activity was detected

B6: gamma interferon: gamma-interferon; recombinant in the synergy tests (protein, UniProt P01579 24-161, looked up)
Interferon gamma: QDPYVKEAENLKKYFNAGHSDVADNGTLFLGILKNWKEESDRKIMQSQIVSFYFKLFKNFKDDQSIQKSVETIKEDMNVKFFNSNKKKRDDFEKLTNYSVTDLNVQRKAIHELIQVMAELSPAAKTGKRKRSQMLFRG
Inhibitory activity towards binding of 125I-Oncostatin M ([1]; competitor 2.5 μg/ml): None of these showed significant inhibitory activity
